In PMC9637899:

B1: activated C1s–CCP1–CCP2–SP [human] / ElpB_(182–378) [B. burgdorferi] (parent)
chain 1: MPCPKEDTPNSVWEPAKAKYVFRDVVQITCLDGFEVVEGRVGATSFYSTCQSNGKWSNSKLKCQPVDCGIPESIENGKVEDPESTLFGSVIRYTCEEPYYYMENGGGGEYHCAGNGSWVNEVLGPELPKCVPVCGVPREPFEEKQRIIGGSDADIKNFPWQVFFDNPWAGGALINEYWVLTAAHVVEGNREPTMYVGSTSVQTSRLAKSKMLTPEHVFIHPGWKLLEVPEGRTNFDNDIALVRLKDPVKMGPTVSPICLPGTSSDYNLMDGDLGLISGWGRTEKRDRAVRLKAARLPVAPLRKCKEVKVEKPTADAEAYVFTPNMICAGGEKGMDSCKGDSGGAFAVQDPNDKTKFYAAGLVSWGPQCGTYGLYTRVKNYVDWIMKTMQENSTPRED
chain 2: QERKAKAEKEAKEKAERQKQEEQQKRKAEKEREEQRKEAEKRQVDNEIRTLTGKIDEINRNIDVIKEQTSVGAQGVIDRITGPVYDDFTDGNKAIYKTWGDLEDDNDEGLGKLLKELSDTRHNLRTKLNEGNKAYIIDTRSTEPQLKENVSVSEIKSDLDELKSKLEEVKEYLEDKDNFEEIKEYVAGSEDNYDEED

Variants of: B1
Assay: SPR
Settings: with ElpB_(182–378) [B. burgdorferi]; steady-state response at the highest analyte concentration plotted (about 5e-7 M on the x axis); ElpB182-378 immobilized, C1s construct injected; parent: 79; read off a plot

Variant	response [RU]
chain 1 K284A R285A R290A K292A	7
chain 1 E35A D67A K284A R285A R290A K292A	0
